Measurements from publication PMC5384220.

Target: T1, N-terminally Hexa-His-tagged KDM4A (residues 1–359) (human) (UniProt O75164)
T1 sequence: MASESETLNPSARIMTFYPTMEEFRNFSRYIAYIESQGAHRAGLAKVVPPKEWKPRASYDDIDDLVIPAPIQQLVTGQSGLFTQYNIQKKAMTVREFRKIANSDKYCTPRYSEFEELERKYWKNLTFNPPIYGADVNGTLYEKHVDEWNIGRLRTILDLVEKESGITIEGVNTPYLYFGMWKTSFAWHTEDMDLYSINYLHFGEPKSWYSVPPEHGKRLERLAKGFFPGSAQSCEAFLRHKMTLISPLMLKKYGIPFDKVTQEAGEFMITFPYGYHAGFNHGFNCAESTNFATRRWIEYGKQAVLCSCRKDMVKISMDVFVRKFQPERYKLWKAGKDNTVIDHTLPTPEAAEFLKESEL

B1: PolyR (Arg)9 peptide (peptide)
peptide: RRRRRRRRR
B1 was tested, and the IC50 of inhibition of demethylase activity (AlphaScreen method) was 40 nM.
